Measured values published in US8357523B2, “Beta-glucosidase variant enzymes and related polynucleotides” (Codexis, Inc., priority 2009, dated 2013).
Residue numbers refer to the chain shown, from its start.

B1: 13 (protein)
chain: STAIAQEGAAPAAILHPEKWPRPATQRLIDPAVEKRVDALLKQLSVEEKVGQVIQGDIGTITPEDLRKYPLGSILAGGNSGPNGDDRAPPKEWLDLADAFYRVSLEKRPGHTPIPVLFGIDAVHGHGNIGSATIFPHNIALGATHDPELLRRIGEVTAVEMAATGIDWTFAPALSVVRDDRWGRTYEGFSEDPEIVACYSAAIVEGVQGKFGSKDFMAPGRIVASAKHFLADGGTDQGRDQGDARISEDELIRIHNAGYPPAIDAGVLTVMASFSSWQGIKHHGHKQLLTDVLKGQMGFNGFIVGDWNAHDQVPGCTKFNCPTSLIAGLDMYMAADSWKQLYENTLAQVKDGTIPMARLDDAVRRILRVKVLAGLFEKPAPKDRPGLPGLETLGSPEHRAVGREAVRKSLVLLKNDKGTLPLSPKARVLVAGDGADNIGKQSGGWTISWQGTGNRNDEFPGATSILGGIRDAVADAGGSVEFDVAGQYKTKPDVAIVVFGEEPYAEFQGDVETLEYQPDQKQDLALLKKLKDQGIPVVAVFLSGRPMWVNPELNASDAFVAAWLPGTEGGGVADVLFTDKAGKVQHDFAGKLSYSWPRTAAQTTVNRGDADYNPLFAYGYGLTYKDKSKVGTLPEESGVPAEARQNAGIYFRAGALRLPGRFL
B2: 40 (protein)
chain: B1 chain with A173C, C198A
B3: 36 (protein)
chain: B1 chain with A143M, C198A
B4: 19 (protein)
chain: B1 chain with C198L
B5: 21 (protein)
chain: B1 chain with V159Q, C198A
B6: 35 (protein)
chain: B1 chain with C198A, A202K
B7: 34 (protein)
chain: B1 chain with C198A, I222S
B8: 24 (protein)
chain: B1 chain with C198A, P219V
B9: 39 (protein)
chain: B1 chain with A143Q, C198A
B10: 23 (protein)
chain: B1 chain with C198A, A202P
B11: 32 (protein)
chain: B1 chain with C198A, I222G
B12: 38 (protein)
chain: B1 chain with A173S, C198A
B13: 16 (protein)
chain: B1 chain with C198S
B14: 20 (protein)
chain: B1 chain with C198N
B15: 29 (protein)
chain: B1 chain with C198A, A201P
B16: 33 (protein)
chain: B1 chain with V159R, C198A
B17: 18 (protein)
chain: B1 chain with V159A, C198A
B18: 30 (protein)
chain: B1 chain with E155D, C198A
B19: 22 (protein)
chain: B1 chain with V159I, C198A
B20: 26 (protein)
chain: B1 chain with C198A, A202F
B21: 14 (protein)
chain: B1 chain with D146S, C198A
B22: 17 (protein)
chain: B1 chain with C198A, P219M
B23: 15 (protein)
chain: B1 chain with R151P, C198A
B24: 37 (protein)
chain: B1 chain with I195L, C198A
B25: 31 (protein)
chain: B1 chain with C198Q
B26: 25 (protein)
chain: B1 chain with R151P, C198A
B27: 28 (protein)
chain: B1 chain with C198A, F211W
B28: 27 (protein)
chain: B1 chain with C198A, A202Y

Test: High throughput cellobiose assay: fold improvement in cellobiase activity of CelA variants over a control enzyme (Tables 2A-2D, 3, 5, 6, 7)
Assay type: biochemical
Settings: 3.3 g/l cellobiose, 50° C. and pH 6.5; compared to native CelA (SEQ ID NO: 4)
Procedure: β-glucosidase activity was also determined using a cellobiose assay, which used cellobiose as substrate. In a total volume of 100 μL, 25 μL clear media supernatant containing CelA enzyme was added to 10 g/L cellobiose (Fluka Cat. No. 22150, Sigma-Aldrich, Inc., St. Louis, Mo.) in 100 mM sodium phosphate buffer (pH 6-7) or sodium acetate buffer (pH 5-5.5). The reaction was incubated at 45-70° C. for an appropriate time (25 minutes to overnight depending on the enzyme concentration) while shaking. Glucose production was determined using an enzymatic glucose assay (K-GLUC, Megazyme, Ireland). 10 μl of each reaction was added to 190 μl GOPOD reagent (supplied as part of the K-GLUC assay kit). The reaction was incubated at 45° C. for 20 minutes and the absorbance of the solution was measured at 510 nm. The GOPOD reagent contains 50 mM Potassium phosphate buffer pH7.4, 0.011M p-hydroxybenzoic acid, 0.008% w/v sodium azide, glucose oxidase (>12,000 U/L), peroxidase (>650 U/L) and 80 mg/L 4-aminoantipyrine. The glucose oxidase enzyme in the reagent reacts with any glucose present in the sample and produces hydrogen peroxide which then reacts with the 4-aminoantipyrine to produce a quinoneimine dye in quantities proportionate with the amount of glucose present and can be measured spectrophotometrically at 510 nm. Detectable β-glucosidase activity was observed under high throughput screening conditions (i.e., pH 7, 50° C.).
Plasmid libraries containing variant CelA genes were transformed into B. megaterium and plated on Luria-Bertani (LB) agar plates containing 3 μg/mL tetracycline with a DM3 regeneration media overlay (400 mM sodium succinate dibasic, pH 7.3, 0.5% casamino acids, 0.5% yeast extract, 0.4% K2HPO4, 0.2% KH2PO4, 20 mM MgCl2, 0.5% glucose and 0.2% BSA). After incubation for at least 18 hours at 30° C., colonies were picked using a Q-bot® robotic colony picker (Genetix USA, Inc., Beaverton, Oreg.) into shallow, 96-well well microtiter plates containing 180 μL, LB and 10 μg/mL tetracycline. Cells were grown overnight at 37° C. with shaking at 200 rpm and 85% humidity. 10 μL of this culture was then transferred into 96-well microtiter plates (deep well) containing 390 μL A5-glucose-xylose medium and 10 μg/mL tetracycline as described in example 2. The plates were then incubated at 37° C. with shaking at 250 rpm and 85% humidity overnight (˜18-24 hours). The deep plates were centrifuged at 4000 rpm for 15 minutes and the clear media supernatant containing the secreted CelA enzyme was used for the high throughput pNPG or cellobiose assay of Example 5.
The CelA libraries were screened in high throughput using the cellobiose assay of Example 5 (Substrate: cellobiose; pH: 5-7; temperature: 45-72° C.; time: 2-24 hrs) for the identification of improved variants.
In shallow, 96-well microtiter plates 25 μL of media supernatant was added to 75 μL of […] cellobiose in 150 mM sodium acetate buffer pH 5-5.5 or 150 mM sodium phosphate buffer pH6-7. After sealing with aluminum/polypropylene laminate heat seal tape (Velocity 11 (Menlo Park, Calif.), Cat#06643-001), the plates were shaken at 45-65° C. for up to 24 hrs. The plates were centrifuged for 5 minutes at 4000 rpm. In shallow well clear microtiter plates, 10 μL of the reaction mixture was added to 190 μL of GOPOD reagent (as in example 5B) per well. The solutions were incubated at 45° C. for 1 hour and absorbance was measured at 510 nm for the identification of active CelA variants.
Improved CelA variants were identified from the high throughput screening of various CelA variant libraries as described in Example 7, using the cellobiose assay of Example 5 using 3.3 g/l cellobiose at temperatures from 50°-55° C. at a pH in the range of 5.3-6.5. Tables 2A, 2B, 2C, and 2D and Table 3 depict the improvement in activities of CelA variants encompassed by the invention. The assay conditions are indicated in each table. […]

| Molecule | Fold improvement over wildtype CelA |
| --- | --- |
| B1 | + (+ = 1.1 to 2.0 fold improvement over native CelA (SEQ ID NO: 4)) |
| B2 | ++ (++ = 2.1 to 2.6 fold improvement over native CelA (SEQ ID NO: 4)) |
| B3 | + (+ = 1.1 to 2.0 fold improvement over native CelA (SEQ ID NO: 4)) |
| B4 | + (+ = 1.1 to 2.0 fold improvement over native CelA (SEQ ID NO: 4)) |
| B5 | + (+ = 1.1 to 2.0 fold improvement over native CelA (SEQ ID NO: 4)) |
| B6 | + (+ = 1.1 to 2.0 fold improvement over native CelA (SEQ ID NO: 4)) |
| B7 | + (+ = 1.1 to 2.0 fold improvement over native CelA (SEQ ID NO: 4)) |
| B8 | + (+ = 1.1 to 2.0 fold improvement over native CelA (SEQ ID NO: 4)) |
| B9 | + (+ = 1.1 to 2.0 fold improvement over native CelA (SEQ ID NO: 4)) |
| B10 | + (+ = 1.1 to 2.0 fold improvement over native CelA (SEQ ID NO: 4)) |
| B11 | + (+ = 1.1 to 2.0 fold improvement over native CelA (SEQ ID NO: 4)) |
| B12 | + (+ = 1.1 to 2.0 fold improvement over native CelA (SEQ ID NO: 4)) |
| B13 | + (+ = 1.1 to 2.0 fold improvement over native CelA (SEQ ID NO: 4)) |
| B14 | + (+ = 1.1 to 2.0 fold improvement over native CelA (SEQ ID NO: 4)) |
| B15 | ++ (++ = 2.1 to 2.6 fold improvement over native CelA (SEQ ID NO: 4)) |
| B16 | + (+ = 1.1 to 2.0 fold improvement over native CelA (SEQ ID NO: 4)) |
| B17 | + (+ = 1.1 to 2.0 fold improvement over native CelA (SEQ ID NO: 4)) |
| B18 | + (+ = 1.1 to 2.0 fold improvement over native CelA (SEQ ID NO: 4)) |
| B19 | + (+ = 1.1 to 2.0 fold improvement over native CelA (SEQ ID NO: 4)) |
| B20 | + (+ = 1.1 to 2.0 fold improvement over native CelA (SEQ ID NO: 4)) |
| B21 | ++ (++ = 2.1 to 2.6 fold improvement over native CelA (SEQ ID NO: 4)) |
| B22 | + (+ = 1.1 to 2.0 fold improvement over native CelA (SEQ ID NO: 4)) |
| B23 | + (+ = 1.1 to 2.0 fold improvement over native CelA (SEQ ID NO: 4)) |
| B24 | + (+ = 1.1 to 2.0 fold improvement over native CelA (SEQ ID NO: 4)) |
| B25 | + (+ = 1.1 to 2.0 fold improvement over native CelA (SEQ ID NO: 4)) |
| B26 | + (+ = 1.1 to 2.0 fold improvement over native CelA (SEQ ID NO: 4)) |
| B27 | ++ (++ = 2.1 to 2.6 fold improvement over native CelA (SEQ ID NO: 4)) |
| B28 | + (+ = 1.1 to 2.0 fold improvement over native CelA (SEQ ID NO: 4)) |
